# Measured values reported in patent US10702592B2, “Peptides and combination of peptides for use in immunotherapy against NHL and other cancers” (Immatics Biotechnologies GmbH, priority 2016, dated 2020).
# Target: HLA-A*02:01 (Homo sapiens, UniProt P04439, D140Y/D185E/D98H/E176V/E277Q/G131W/G231S/I119V/I121R/I166T/I218V/L300P/L318F/N151K/N90K/P208A/P217A/Q86G/Q94H/R138H/R169H/T345S)
# Experiment: MHC binding assay (UV-ligand exchange, beta2m ELISA)
# Conditions: binding to HLA-A*02:01, UV-ligand exchange
# In short: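 UV-exchange pMHC monomers, 100-fold diluted → streptavidin capture 1 h 37 °C → HRP anti-β2m 2 ug/ml 1 h 37 °C → TMB, A450. Yield from HLA-A*02:01/MLA-001 monomer standard curve, 15-500 ng/ml. Only stably bound peptides keep β2m-containing complexes intact.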
row,Substance,"Peptide exchange (MHC class I binding score, peptide exchange yield)"
1,7 (NLLGMIFSM; listed as Homo sapiens) [compound 7],“++++” (≥75% = ++++)
2,8 (ALYAVIEKA; listed as Homo sapiens) [compound 8],“+++” (≥50 = +++)
3,9 (FLLDLDPLL; listed as Homo sapiens) [compound 9],“+++” (≥50 = +++)
4,12 (GLLLLVPLL; listed as Homo sapiens) [compound 12],“+++” (≥50 = +++)
5,13 (HLVPASWKL; listed as Homo sapiens) [compound 13],“+++” (≥50 = +++)
6,17 (VIIPLLSSV; listed as Homo sapiens) [compound 17],“+++” (≥50 = +++)
7,19 (VLEAILPLV; listed as Homo sapiens) [compound 19],“++++” (≥75% = ++++)
8,21 (ALFKEAYSL; listed as Homo sapiens) [compound 21],“+++” (≥50 = +++)
9,22 (ALKKHLTSV; listed as Homo sapiens) [compound 22],“+++” (≥50 = +++)
10,24 (AVLGFSFRL; listed as Homo sapiens) [compound 24],“+++” (≥50 = +++)
11,25 (FLDTSNQHLL; listed as Homo sapiens) [compound 25],“+++” (≥50 = +++)
12,26 (FLGSFIDHV; listed as Homo sapiens) [compound 26],“+++” (≥50 = +++)
13,27 (FLNQESFDL; listed as Homo sapiens) [compound 27],“+++” (≥50 = +++)
14,28 (FLSNANPSL; listed as Homo sapiens) [compound 28],“+++” (≥50 = +++)
15,29 (ILSDVTQGL; listed as Homo sapiens) [compound 29],“+++” (≥50 = +++)
16,30 (ILSTLDVEL; listed as Homo sapiens) [compound 30],“+++” (≥50 = +++)
17,33 (LLANIVPIAMLV; listed as Homo sapiens) [compound 33],“++++” (≥75% = ++++)
18,35 (SLSSERYYL; listed as Homo sapiens) [compound 35],“+++” (≥50 = +++)
19,36 (VILDIPLLFET; listed as Homo sapiens) [compound 36],“+++” (≥50 = +++)
20,37 (VLGNALEGV; listed as Homo sapiens) [compound 37],“+++” (≥50 = +++)

row,Substance,"Peptide exchange (MHC class I binding score, peptide exchange yield)"
1,40 (FLNSVIVDL; listed as Homo sapiens) [compound 40],“++++” (≥75% = ++++)
2,41 (ILASIFETV; listed as Homo sapiens) [compound 41],“++++” (≥75% = ++++)
3,42 (YLQDLVERA; listed as Homo sapiens) [compound 42],“++++” (≥75% = ++++)
4,43 (ALLEGVKNV; listed as Homo sapiens) [compound 43],“+++” (≥50 = +++)
5,44 (FIIEEQSFL; listed as Homo sapiens) [compound 44],“+++” (≥50 = +++)
6,46 (FLVEEIFQT; listed as Homo sapiens) [compound 46],“+++” (≥50 = +++)
7,47 (GLLPKLTAL; listed as Homo sapiens) [compound 47],“+++” (≥50 = +++)
8,51 (SLLGNSPVL; listed as Homo sapiens) [compound 51],“++++” (≥75% = ++++)
9,52 (VLLEDVDAAFL; listed as Homo sapiens) [compound 52],“++++” (≥75% = ++++)
10,53 (FLREYFERL; listed as Homo sapiens) [compound 53],“++++” (≥75% = ++++)
11,57 (LQIGDFVSV; listed as Homo sapiens) [compound 57],“++++” (≥75% = ++++)
12,59 (RLHREVAQV; listed as Homo sapiens) [compound 59],“+++” (≥50 = +++)
13,60 (SLLIDVITV; listed as Homo sapiens) [compound 60],“+++” (≥50 = +++)
14,61 (SLLNKDLSL; listed as Homo sapiens) [compound 61],“++++” (≥75% = ++++)
15,62 (ALAPYLDLL; listed as Homo sapiens) [compound 62],“++++” (≥75% = ++++)
16,66 (KLAPIPVEL; listed as Homo sapiens) [compound 66],“++++” (≥75% = ++++)
17,67 (LLATVNVAL; listed as Homo sapiens) [compound 67],“++++” (≥75% = ++++)
18,68 (QIAAFLFTV; listed as Homo sapiens) [compound 68],“++++” (≥75% = ++++)
19,73 (YLGEEYPEV; listed as Homo sapiens) [compound 73],“+++” (≥50 = +++)
20,74 (SLDLRPLEV; listed as Homo sapiens) [compound 74],“++++” (≥75% = ++++)

# Tested on: CD8+ T cells
# Experiment: In vitro T-cell priming immunogenicity assay (aAPC with pMHC and anti-CD28, multimer staining)
# Assay type: cell-based, human
# Conditions: HLA-A*02 restricted peptides; percentage of positive wells and donors (among evaluable)
# From the text: In order to obtain information regarding the immunogenicity of the TUMAPs of the present invention, the inventors performed investigations using an in vitro T-cell priming assay based on repeated stimulations of CD8+ T cells with artificial antigen presenting cells (aAPCs) loaded with peptide/MHC complexes and anti-CD28 antibody.
# In order to perform in vitro stimulations by artificial antigen presenting cells loaded with peptide-MHC complex (pMHC) and anti-CD28 antibody, the inventors first isolated CD8+ T cells from fresh HLA-A*02 leukapheresis products via positive selection using CD8 microbeads (Miltenyi Biotec, Bergisch-Gladbach, Germany) of healthy donors obtained from the University clinics Mannheim, Germany, after informed consent.
# PBMCs and isolated CD8+ lymphocytes were incubated in T-cell medium (TCM) until use consisting of RPMI-Glutamax (Invitrogen, Karlsruhe, Germany) supplemented with 10% heat inactivated human AB serum (PAN-Biotech, Aidenbach, Germany), 100 U/ml Penicillin/100 μg/ml Streptomycin (Cambrex, Cologne, Germany), 1 mM sodium pyruvate (CC Pro, Oberdorla, Germany), 20 μg/ml Gentamycin (Cambrex). 2.5 ng/ml IL-7 (PromoCell, Heidelberg, Germany) and 10 U/ml IL-2 (Novartis Pharma, Nurnberg, Germany) were also added to the TCM at this step.
# Generation of pMHC/anti-CD28 coated beads, T-cell stimulations and readout was performed in a highly defined in vitro system using four different pMHC molecules per stimulation condition and 8 different pMHC molecules per readout condition.
# The purified co-stimulatory mouse IgG2a anti human CD28 Ab 9.3 (Jung et al., 1987) was chemically biotinylated using Sulfo-N-hydroxysuccinimidobiotin as recommended by the manufacturer (Perbio, Bonn, Germany). Beads used were 5.6 μm diameter streptavidin coated polystyrene particles (Bangs Laboratories, Illinois, USA).
# 800.000 beads/200 μl were coated in 96-well plates in the presence of 4×12.5 ng different biotin-pMHC, washed and 600 ng biotin anti-CD28 were added subsequently in a volume of 200 μl. Stimulations were initiated in 96-well plates by co-incubating 1×10^6 CD8+ T cells with 2×10^5 washed coated beads in 200 μl TCM supplemented with 5 ng/ml IL-12 (PromoCell) for 3 days at 37° C. Half of the medium was then exchanged by fresh TCM supplemented with 80 U/ml IL-2 and incubating was continued for 4 days at 37° C. This stimulation cycle was performed for a total of three times. For the pMHC multimer readout using 8 different pMHC molecules per condition, a two-dimensional combinatorial coding approach was used as previously described (Andersen et al., 2012) with minor modifications encompassing coupling to 5 different fluorochromes. Finally, multimeric analyses were performed by staining the cells with Live/dead near IR dye (Invitrogen, Karlsruhe, Germany), CD8-FITC antibody clone SK1 (BD, Heidelberg, Germany) and fluorescent pMHC multimers. For analysis, a BD LSRII SORP cytometer equipped with appropriate lasers and filters was used. Peptide specific cells were calculated as percentage of total CD8+ cells. Evaluation of multimeric analysis was done using the FlowJo software (Tree Star, Oregon, USA). In vitro priming of specific multimer+CD8+ lymphocytes was detected by comparing to negative control stimulations.
row,Substance,Wells positive [%]
1,7 (NLLGMIFSM; listed as Homo sapiens) [compound 7],“++++” (≥70% = ++++)
2,8 (ALYAVIEKA; listed as Homo sapiens) [compound 8],“+” (<20% = +)
3,9 (FLLDLDPLL; listed as Homo sapiens) [compound 9],“++” (20% - 49% = ++)
4,12 (GLLLLVPLL; listed as Homo sapiens) [compound 12],“+++” (50% - 69% = +++)
5,13 (HLVPASWKL; listed as Homo sapiens) [compound 13],“+++” (50% - 69% = +++)
6,17 (VIIPLLSSV; listed as Homo sapiens) [compound 17],“++” (20% - 49% = ++)
7,19 (VLEAILPLV; listed as Homo sapiens) [compound 19],“+” (<20% = +)
8,21 (ALFKEAYSL; listed as Homo sapiens) [compound 21],“+” (<20% = +)
9,22 (ALKKHLTSV; listed as Homo sapiens) [compound 22],“++++” (≥70% = ++++)
10,24 (AVLGFSFRL; listed as Homo sapiens) [compound 24],“++++” (≥70% = ++++)
11,25 (FLDTSNQHLL; listed as Homo sapiens) [compound 25],“+” (<20% = +)
12,26 (FLGSFIDHV; listed as Homo sapiens) [compound 26],“+” (<20% = +)
13,27 (FLNQESFDL; listed as Homo sapiens) [compound 27],“+” (<20% = +)
14,28 (FLSNANPSL; listed as Homo sapiens) [compound 28],“++++” (≥70% = ++++)
15,29 (ILSDVTQGL; listed as Homo sapiens) [compound 29],“+” (<20% = +)
16,30 (ILSTLDVEL; listed as Homo sapiens) [compound 30],“++” (20% - 49% = ++)
17,33 (LLANIVPIAMLV; listed as Homo sapiens) [compound 33],“+” (<20% = +)
18,35 (SLSSERYYL; listed as Homo sapiens) [compound 35],“++++” (≥70% = ++++)
19,36 (VILDIPLLFET; listed as Homo sapiens) [compound 36],“++” (20% - 49% = ++)
20,37 (VLGNALEGV; listed as Homo sapiens) [compound 37],“+” (<20% = +)

row,Substance,Wells positive [%]
1,40 (FLNSVIVDL; listed as Homo sapiens) [compound 40],“+++” (50% - 69% = +++)
2,41 (ILASIFETV; listed as Homo sapiens) [compound 41],“+++” (50% - 69% = +++)
3,42 (YLQDLVERA; listed as Homo sapiens) [compound 42],“+++” (50% - 69% = +++)
4,43 (ALLEGVKNV; listed as Homo sapiens) [compound 43],“++” (20% - 49% = ++)
5,44 (FIIEEQSFL; listed as Homo sapiens) [compound 44],“+” (<20% = +)
6,46 (FLVEEIFQT; listed as Homo sapiens) [compound 46],“+” (<20% = +)
7,47 (GLLPKLTAL; listed as Homo sapiens) [compound 47],“++” (20% - 49% = ++)
8,51 (SLLGNSPVL; listed as Homo sapiens) [compound 51],“+++” (50% - 69% = +++)
9,52 (VLLEDVDAAFL; listed as Homo sapiens) [compound 52],“+” (<20% = +)
10,53 (FLREYFERL; listed as Homo sapiens) [compound 53],“+++” (50% - 69% = +++)
11,57 (LQIGDFVSV; listed as Homo sapiens) [compound 57],“++++” (≥70% = ++++)
12,59 (RLHREVAQV; listed as Homo sapiens) [compound 59],“+” (<20% = +)
13,60 (SLLIDVITV; listed as Homo sapiens) [compound 60],“+++” (50% - 69% = +++)
14,61 (SLLNKDLSL; listed as Homo sapiens) [compound 61],“+” (<20% = +)
15,62 (ALAPYLDLL; listed as Homo sapiens) [compound 62],“++” (20% - 49% = ++)
16,66 (KLAPIPVEL; listed as Homo sapiens) [compound 66],“++” (20% - 49% = ++)
17,67 (LLATVNVAL; listed as Homo sapiens) [compound 67],“+” (<20% = +)
18,68 (QIAAFLFTV; listed as Homo sapiens) [compound 68],“+++” (50% - 69% = +++)
19,73 (YLGEEYPEV; listed as Homo sapiens) [compound 73],“+” (<20% = +)
20,74 (SLDLRPLEV; listed as Homo sapiens) [compound 74],“++” (20% - 49% = ++)
